Experimental data taken from patent US20230322953A1 (HARBOUR BIOMED SHANGHAI, published 2023).
Where “and” joins values, the source holds several entries; their conditions need not be identical. Equal values may be shown once.

T1: human BCMA (human, UniProt Q02223 1-184)
T1 construct: whole, on cells; also called hBCMA; TNFRSF17
T1 sequence (looked up): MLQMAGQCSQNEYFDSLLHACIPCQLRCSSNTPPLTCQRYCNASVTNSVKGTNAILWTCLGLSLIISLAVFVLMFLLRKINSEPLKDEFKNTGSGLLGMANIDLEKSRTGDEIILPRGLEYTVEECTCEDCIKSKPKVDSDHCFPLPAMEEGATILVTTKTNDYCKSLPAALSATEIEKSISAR


Columns and labels:
human BCMA [1] = target: T1, human BCMA; assay: FACS on NCI-H929 cells
human BCMA [2] = target: T1, human BCMA; assay: FACS on HEK293T/hBCMA cells, Experiment 2
human BCMA [3] = target: T1, human BCMA; assay: FACS on HEK293T/hBCMA cells, Experiment 3
cynomolgus monkey BCMA = target: T2, cynomolgus monkey BCMA (cynomolgus monkey, UniProt A0A2K5UD97 1-183); assay: FACS on HEK293T/cyno BCMA cells
T2 construct: whole, on cells; also called cyno BCMA

[4] = target: T3, human 4-1BB (tumor necrosis factor receptor superfamily member 9) (human, UniProt Q07011 24-255); assay: flow cytometry (FACS) on CHO-K1/hu 4-1BB cells
T3 construct: whole, on cells; also called hu 4-1BB; CD137
T3 sequence (Q07011 24-255): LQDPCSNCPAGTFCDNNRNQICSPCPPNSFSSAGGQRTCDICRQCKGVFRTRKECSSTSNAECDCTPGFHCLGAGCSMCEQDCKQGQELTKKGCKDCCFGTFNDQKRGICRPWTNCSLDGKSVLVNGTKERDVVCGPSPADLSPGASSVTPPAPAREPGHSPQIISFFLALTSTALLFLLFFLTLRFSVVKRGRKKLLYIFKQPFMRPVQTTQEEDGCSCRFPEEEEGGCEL

T2 sequence (A0A2K5UD97 entry or part of it): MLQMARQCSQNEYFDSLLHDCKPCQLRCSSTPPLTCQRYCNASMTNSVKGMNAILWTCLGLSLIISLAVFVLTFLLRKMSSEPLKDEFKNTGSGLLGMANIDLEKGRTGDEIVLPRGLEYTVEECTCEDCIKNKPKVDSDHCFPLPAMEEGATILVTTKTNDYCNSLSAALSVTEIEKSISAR

EC50 (human BCMA [1])	EC50 (human BCMA [2]) [nM]	Maximum MFI (human BCMA [2])	EC50 (human BCMA [3]) [nM]	Maximum MFI (human BCMA [3])	Maximum MFI (human BCMA [1])	Maximum MFI (cynomolgus monkey BCMA)	Binder	EC50 [4] [nM]	Maximum MFI [4] [MFI]
1.73 nM and 1.34 nM	0.355	15000	0.259	100000	–	–	PR002309 (bispecific antibody, human IgG1, lambda, L234A L235A) light: QAVVTQEPSLTVSPGGTVTLTCRSSTGAVTTSNYANWVQQKPGQAPRGLIGGTNKRAPWTPARFSGSLLGDKAALTLLGAQPEDEAEYFCALWYSNLWVFGGGTKLTVLGQPKAAPSVTLFPPSSEELQANKATLVCLISDFYPGAVTVAWKADSSPVKAGVETTTPSKQSNNKYAASSYLSLTPEQWKSHRSYSCQVTHEGSTVEKTVAPTECS heavy: EVQLLESGGGLVQPGGSLRLSCAASGFTFSTYAMNWVRQAPGKGLEWVSRIRSKYNNYATYYADSVKDRFTISRDDSKSTLYLQMNSLRAEDTAVYYCVRHGNFGNSYVSWFAYWGQGTLVTVSSASTKGPSVFPLAPSSKSTSGGTAALGCLVKDYFPEPVTVSWNSGALTSGVHTFPAVLQSSGLYSLSSVVTVPSSSLGTQTYICNVNHKPSNTKVDKKVEPKSCDKTHTCPPCPAPEAAGGPSVFLFPPKPKDTLMISRTPEVTCVVVDVSHEDPEVKFNWYVDGVEVHNAKTKPREEQYNSTYRVVSVLTVLHQDWLNGKEYKCKVSNKALGAPIEKTISKAKGQPREPQVYTLPPCREEMTKNQVSLWCLVKGFYPSDIAVEWESNGQPENNYKTTPPVLDSDGSFFLYSKLTVDKSRWQQGNVFSCSVMHEALHNHYTQKSLSLSPGK EVQLVETGGGLIQPGGSLRLSCAASGFTVSDNYMTWVRQAPGKGLEWVSVIFSGGNTYYADSVKGRFTISRDNAKNTLYLQMNSLRAEDTALYYCARRNYDDTRGTDVFDIWGQGTMVTVSSRTGGGGSGGGGSGGGGSKLEVQLVETGGGLIQPGGSLRLSCAASGFTVSDNYMTWVRQAPGKGLEWVSVIFSGGNTYYADSVKGRFTISRDNAKNTLYLQMNSLRAEDTALYYCARRNYDDTRGTDVFDIWGQGTMVTVSSASEPKSSDKTHTCPPCPAPEAAGGPSVFLFPPKPKDTLMISRTPEVTCVVVDVSHEDPEVKFNWYVDGVEVHNAKTKPREEQYNSTYRVVSVLTVLHQDWLNGKEYKCKVSNKALGAPIEKTISKAKGQPREPQVCTLPPSREEMTKNQVSLSCAVKGFYPSDIAVEWESNGQPENNYKTTPPVLDSDGSFFLVSKLTVDKSRWQQGNVFSCSVMHEALHNHYTQKSLSLSPGK	–	–
2.32 nM	0.654	14700	–	–	4180	11000	PR002901 (bispecific antibody, human IgG1, lambda, L234A L235A) light: QAVVTQEPSLTVSPGGTVTLTCRSSTGAVTTSNYANWVQQKPGQAPRGLIGGTNKRAPWTPARFSGSLLGDKAALTLLGAQPEDEAEYFCALWYSNLWVFGGGTKLTVLGQPKAAPSVTLFPPSSEELQANKATLVCLISDFYPGAVTVAWKADSSPVKAGVETTTPSKQSNNKYAASSYLSLTPEQWKSHRSYSCQVTHEGSTVEKTVAPTECS heavy: not shown EVQLVETGGGLIQPGGSLRLSCAASGFTVSDNYMTWVRQAPGKGLEWVSVIFSGGNTYYADSVKGRFTISRDNAKNTLYLQMNSLRAEDTALYYCARRNYDDTRGTDVFDIWGQGTMVTVSSGSGSEVQLVETGGGLIQPGGSLRLSCAASGFTVSDNYMTWVRQAPGKGLEWVSVIFSGGNTYYADSVKGRFTISRDNAKNTLYLQMNSLRAEDTALYYCARRNYDDTRGTDVFDIWGQGTMVTVSSASEPKSSDKTHTCPPCPAPEAAGGPSVFLFPPKPKDTLMISRTPEVTCVVVDVSHEDPEVKFNWYVDGVEVHNAKTKPREEQYNSTYRVVSVLTVLHQDWLNGKEYKCKVSNKALPAPIEKTISKAKGQPREPQVCTLPPSREEMTKNQVSLSCAVKGFYPSDIAVEWESNGQPENNYKTTPPVLDSDGSFFLVSKLTVDKSRWQQGNVFSCSVMHEALHNHYTQKSLSLSPGK	–	–
1.53 nM and 2.01 nM	0.385	14000	0.183	93200	–	–	PR002895 (bispecific antibody, human IgG1, lambda, L234A L235A) light: QAVVTQEPSLTVSPGGTVTLTCRSSTGAVTTSNYANWVQQKPGQAPRGLIGGTNKRAPWTPARFSGSLLGDKAALTLLGAQPEDEAEYFCALWYSNLWVFGGGTKLTVLGQPKAAPSVTLFPPSSEELQANKATLVCLISDFYPGAVTVAWKADSSPVKAGVETTTPSKQSNNKYAASSYLSLTPEQWKSHRSYSCQVTHEGSTVEKTVAPTECS heavy: not shown EVQLVETGGGLIQPGGSLRLSCAASGFTVSDNYMTWVRQAPGKGLEWVSVIFSGGNTYYADSVKGRFTISRDNAKNTLYLQMNSLRAEDTALYYCARRNYDDTRGTDVFDIWGQGTMVTVSSGGGGSGGGGSGGGGSEVQLVETGGGLIQPGGSLRLSCAASGFTVSDNYMTWVRQAPGKGLEWVSVIFSGGNTYYADSVKGRFTISRDNAKNTLYLQMNSLRAEDTALYYCARRNYDDTRGTDVFDIWGQGTMVTVSSASEPKSSDKTHTCPPCPAPEAAGGPSVFLFPPKPKDTLMISRTPEVTCVVVDVSHEDPEVKFNWYVDGVEVHNAKTKPREEQYNSTYRVVSVLTVLHQDWLNGKEYKCKVSNKALPAPIEKTISKAKGQPREPQVCTLPPSREEMTKNQVSLSCAVKGFYPSDIAVEWESNGQPENNYKTTPPVLDSDGSFFLVSKLTVDKSRWQQGNVFSCSVMHEALHNHYTQKSLSLSPGK	–	–
4.3 nM	–	23900	–	–	4210	30600	PR002959 (bispecific antibody, human IgG1, lambda, L234A L235A) light: QAVVTQEPSLTVSPGGTVTLTCRSSTGAVTTSNYANWVQQKPGQAPRGLIGGTNKRAPWTPARFSGSLLGDKAALTLLGAQPEDEAEYFCALWYSNLWVFGGGTKLTVLGQPKAAPSVTLFPPSSEELQANKATLVCLISDFYPGAVTVAWKADSSPVKAGVETTTPSKQSNNKYAASSYLSLTPEQWKSHRSYSCQVTHEGSTVEKTVAPTECS heavy: not shown EVQLVETGGGLIQPGGSLRLSCAASGFTVSDNYMTWVRQAPGKGLEWVSVIFSGGNTYYADSVKGRFTISRDNAKNTLYLQMNSLRAEDTALYYCARRNYDDTRGTDVFDIWGQGTMVTVSSGSGSEVQLVETGGGLIQPGGSLRLSCAASGFTVSDNYMTWVRQAPGKGLEWVSVIFSGGNTYYADSVKGRFTISRDNAKNTLYLQMNSLRAEDTALYYCARRNYDDTRGTDVFDIWGQGTMVTVSSASEPKSSDKTHTCPPCPAPEAAGGPSVFLFPPKPKDTLMISRTPEVTCVVVDVSHEDPEVKFNWYVDGVEVHNAKTKPREEQYNSTYRVVSVLTVLHQDWLNGKEYKCKVSNKALPAPIEKTISKAKGQPREPQVCTLPPSREEMTKNQVSLSCAVKGFYPSDIAVEWESNGQPENNYKTTPPVLDSDGSFFLVSKLTVDKSRWQQGNVFSCSVMHEALHNHYTQKSLSLSPGK	–	–
1.34 nM and 2.91 nM	–	25200	0.226	91600	–	–	PR002953 (bispecific antibody, human IgG1, lambda, L234A L235A) light: QAVVTQEPSLTVSPGGTVTLTCRSSTGAVTTSNYANWVQQKPGQAPRGLIGGTNKRAPWTPARFSGSLLGDKAALTLLGAQPEDEAEYFCALWYSNLWVFGGGTKLTVLGQPKAAPSVTLFPPSSEELQANKATLVCLISDFYPGAVTVAWKADSSPVKAGVETTTPSKQSNNKYAASSYLSLTPEQWKSHRSYSCQVTHEGSTVEKTVAPTECS heavy: not shown EVQLVETGGGLIQPGGSLRLSCAASGFTVSDNYMTWVRQAPGKGLEWVSVIFSGGNTYYADSVKGRFTISRDNAKNTLYLQMNSLRAEDTALYYCARRNYDDTRGTDVFDIWGQGTMVTVSSGGGGSGGGGSGGGGSEVQLVETGGGLIQPGGSLRLSCAASGFTVSDNYMTWVRQAPGKGLEWVSVIFSGGNTYYADSVKGRFTISRDNAKNTLYLQMNSLRAEDTALYYCARRNYDDTRGTDVFDIWGQGTMVTVSSASEPKSSDKTHTCPPCPAPEAAGGPSVFLFPPKPKDTLMISRTPEVTCVVVDVSHEDPEVKFNWYVDGVEVHNAKTKPREEQYNSTYRVVSVLTVLHQDWLNGKEYKCKVSNKALPAPIEKTISKAKGQPREPQVCTLPPSREEMTKNQVSLSCAVKGFYPSDIAVEWESNGQPENNYKTTPPVLDSDGSFFLVSKLTVDKSRWQQGNVFSCSVMHEALHNHYTQKSLSLSPGK	–	–
–	–	–	–	–	–	–	Anti-4-1BB heavy-chain antibody 1016P0042C5, hIgG1 (antibody, V domains shown, HCAb (heavy chain dimer, no light chain), hIgG1 Fc; also called PR001771) VH: EVQLLESGGGLVQPGGSLRLSCAASGFTFSNYAMTWVRQPPGKGLEWVSSISGSGGSTYYADSVKGRFTISRDNSKNTLYLQMNSLRAEDTAVYYCAKEGTGTTSDYYYNVDVWGQGTTVTVSS	0.532	1720
–	–	–	–	–	–	–	Anti-4-1BB heavy-chain antibody 1016P0020G4, hIgG1 (antibody, V domains shown, HCAb (heavy chain dimer, no light chain), hIgG1 Fc; also called PR001836) VH: EVQLLESGGGLVQPGGSLRLSCAASGFIFSNFAMTWVRQPPEKGLKWVSSINGSGFNTYYTDSVKGRFTISRDNSRNTLYLQMNRLTAEDTAVYFCAKEGSSETDDHYYNVDVWGQGTTVTVSS	0.28	1830
–	–	–	–	–	–	–	Anti-4-1BB heavy-chain antibody 1016P0037D2, hIgG1 (antibody, V domains shown, HCAb (heavy chain dimer, no light chain), hIgG1 Fc; also called PR001840) VH: EVQLVESGGGLVQPGGSLRLSCAASGFTFSSYWMHWVRQAPGKGLVWVSRINSDGSSTSYADSVQGRFTISRDNAKNTLYLQMNSLRAEDTAVYYCVRKGSSSYYHYSIEDDWGQGTLVTVSS	0.43	1790
–	–	–	–	–	–	–	Anti-4-1BB heavy-chain antibody 1016P0010B11, hIgG1 (antibody, V domains shown, HCAb (heavy chain dimer, no light chain), hIgG1 Fc; also called PR001758) VH: EVQLLESGGGLVQLGGSLRLSCAASGFTFSRYAMTWVRQAPEKGLEWVSSISGSGDDTYYGDSVKGRFTISRDNSQNTVYLQMNSLRAEDTAVYFCAKEKAGTTGDYYYNVDVWGQGTTVTVSS	0.212	1640
–	–	–	–	–	–	–	Anti-4-1BB heavy-chain antibody PR001838_G53A, hIgG1 (antibody, V domains shown, HCAb (heavy chain dimer, no light chain), hIgG1 Fc; also called PR004469) VH: EVQLLESGGGLVQPGGSLRLSCAASGFTFSNYAMSWFRQPPETGLKWVSSIDASGGDTYYADSVKGRFTISRDNSKNTLYLQMNSLRAEDTAVYYCAKEGSHGTDDSHYDVDVWGQGTTVTVSS	1.29	109000
